The values below come from PMC5415421.

For the assay, the target named is WDR74 isoform II, C-terminal GFP (human). As to the kind of experiment: co-IP.

B1: Full-length mouse NVL2 (1–855), N-terminal One-Strep-Flag tag (enzyme)
chain: MKPRPGVFVDRKLKQRVIQYLSSNRCGKYVDTGILASDLQRLYSVDYGRRKRNAFRIQVEKVFSIISSEKELKNLKELEDGHLAKRARQDEEDEYTESYSDDDSNMEDYPDPQSANPMNSSLLSLYRRGNSESVSTTPKWGQREATTSTPLLTSKTGSVPLKTPARESEGGWFIDKTPGGKKESLPLDLSDDQSNSKKQDSEIQILKDSSLLESDKKRKGRAKGKGNKRKTENLQEVDGEIEALLQKKAKARSTELQISNVKFEDVGGNDATLKEVCKMLIHMRHPEVYQHLGVVPPRGVLLHGPPGCGKTLLAHAIAGELDLPILKVAAPEIVSGVSGESEQKLRELFDQAVSNAPCIVFIDEIDAITPKREVASKDMERRIVAQLLTCMDDLNNVAATARVLVIGATNRPDSLDPALRRAGRFDREVCLGIPDEAARERILQTLCRKLRLPETFNFCHLAHLTPGFVGADLMALCREAAMCAVNRVLMKQQAQQKKKPEIEGLPSEGDQEERLGAEPTSETQDELQRLLGLLRDQDPLSEEQMQGLCIELNDFIVALAEVQPSAKREGFVTVPNVTWADIGALEDIRDELIMAILAPVRNPDQFRTLGLGTPAGILLAGPPGCGKTLLAKAVANESGLNFISVKGPELLNMYVGESERAVRQVFQRAKNSAPCVIFFDEVDALCPRRSDRETGASVRVVNQLLTEMDGLETRQQVFILAATNRPDIIDPAILRPGRLDKTLFVGLPPPADRVAILKTITKNGTKPPLDEDVNLETIANDLRCNCYTGADLTALVREASLCALRQEITAQKNGVGAGELKVSHKHFEDAFKKVKPSISIKDQVMYEALQRSLSQ
The molecule B1 returned a relative amount of NVL2 bound to the resin of 9.2%.
